Laboratory results published in PMC7617797, “The phosphorylated trimeric SOSS1 complex and RNA polymerase II trigger liquid-liquid phase separation at double-strand breaks”.

Key:
Experiment in all cases: EMSA; EMSA: 25 mM Tris-HCl pH 7.5, 1 mM DTT, 5 mM MgCl2, 100 mM NaCl, 20 min at 37 C; 10 nM substrate; protein 22-167 nM (RPA 5-40 nM); 7.5% native PAGE, 0.5x TBE, 4
[1] = target: INTS3 (UniProt Q68E01 1-1043); settings: protein: recombinant; tags: His6-TEV (438B); label: 5' Cy3; single strand
[2] = target: hSSB1 (Homo sapiens, UniProt Q9BQ15 1-211); settings: protein: recombinant, tags: His6 (2BT)
hSSB1, sequence (Q9BQ15 whole entry): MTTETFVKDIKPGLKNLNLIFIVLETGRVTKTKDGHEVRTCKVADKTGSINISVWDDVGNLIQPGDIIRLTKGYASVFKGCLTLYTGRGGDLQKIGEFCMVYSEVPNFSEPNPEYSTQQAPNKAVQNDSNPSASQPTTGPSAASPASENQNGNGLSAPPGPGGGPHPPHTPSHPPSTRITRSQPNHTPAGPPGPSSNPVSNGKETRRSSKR

[3] = target: RPA (UniProt P27694;P15927;P35244 1-616;1-270;1-121); settings: protein: recombinant; copies: 1;1;1; label: 5' Cy3; single strand
RPA, sequence (P27694 whole entry, chain 1 of 3): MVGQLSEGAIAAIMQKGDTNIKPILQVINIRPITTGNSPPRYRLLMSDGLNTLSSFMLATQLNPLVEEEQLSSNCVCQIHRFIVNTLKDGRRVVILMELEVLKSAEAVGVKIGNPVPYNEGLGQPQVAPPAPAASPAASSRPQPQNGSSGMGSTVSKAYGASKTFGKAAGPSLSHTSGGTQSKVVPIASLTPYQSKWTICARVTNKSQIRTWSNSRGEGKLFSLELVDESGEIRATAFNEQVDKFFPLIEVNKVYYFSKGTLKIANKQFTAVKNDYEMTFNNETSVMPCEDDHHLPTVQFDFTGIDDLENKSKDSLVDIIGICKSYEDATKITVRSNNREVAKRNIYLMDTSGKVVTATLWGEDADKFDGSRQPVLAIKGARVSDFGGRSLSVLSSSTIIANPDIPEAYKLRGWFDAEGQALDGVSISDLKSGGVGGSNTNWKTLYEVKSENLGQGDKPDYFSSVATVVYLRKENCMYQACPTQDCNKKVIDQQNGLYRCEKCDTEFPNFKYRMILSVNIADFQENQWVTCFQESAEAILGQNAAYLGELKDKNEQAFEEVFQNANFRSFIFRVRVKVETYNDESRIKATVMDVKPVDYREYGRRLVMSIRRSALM
RPA, sequence (P15927 whole entry, chain 2 of 3): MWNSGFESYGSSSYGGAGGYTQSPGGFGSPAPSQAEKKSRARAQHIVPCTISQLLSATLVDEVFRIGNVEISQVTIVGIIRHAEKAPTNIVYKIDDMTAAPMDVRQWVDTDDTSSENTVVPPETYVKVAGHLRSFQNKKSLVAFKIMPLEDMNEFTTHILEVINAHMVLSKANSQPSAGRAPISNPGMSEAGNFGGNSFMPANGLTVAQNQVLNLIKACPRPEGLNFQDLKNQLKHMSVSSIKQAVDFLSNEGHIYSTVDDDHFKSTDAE
RPA, sequence (P35244 whole entry, chain 3 of 3): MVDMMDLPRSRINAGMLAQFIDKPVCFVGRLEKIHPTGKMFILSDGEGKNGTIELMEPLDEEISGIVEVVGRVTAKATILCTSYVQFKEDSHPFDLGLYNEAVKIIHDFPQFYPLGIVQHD

INTS3, sequence (Q68E01 whole entry): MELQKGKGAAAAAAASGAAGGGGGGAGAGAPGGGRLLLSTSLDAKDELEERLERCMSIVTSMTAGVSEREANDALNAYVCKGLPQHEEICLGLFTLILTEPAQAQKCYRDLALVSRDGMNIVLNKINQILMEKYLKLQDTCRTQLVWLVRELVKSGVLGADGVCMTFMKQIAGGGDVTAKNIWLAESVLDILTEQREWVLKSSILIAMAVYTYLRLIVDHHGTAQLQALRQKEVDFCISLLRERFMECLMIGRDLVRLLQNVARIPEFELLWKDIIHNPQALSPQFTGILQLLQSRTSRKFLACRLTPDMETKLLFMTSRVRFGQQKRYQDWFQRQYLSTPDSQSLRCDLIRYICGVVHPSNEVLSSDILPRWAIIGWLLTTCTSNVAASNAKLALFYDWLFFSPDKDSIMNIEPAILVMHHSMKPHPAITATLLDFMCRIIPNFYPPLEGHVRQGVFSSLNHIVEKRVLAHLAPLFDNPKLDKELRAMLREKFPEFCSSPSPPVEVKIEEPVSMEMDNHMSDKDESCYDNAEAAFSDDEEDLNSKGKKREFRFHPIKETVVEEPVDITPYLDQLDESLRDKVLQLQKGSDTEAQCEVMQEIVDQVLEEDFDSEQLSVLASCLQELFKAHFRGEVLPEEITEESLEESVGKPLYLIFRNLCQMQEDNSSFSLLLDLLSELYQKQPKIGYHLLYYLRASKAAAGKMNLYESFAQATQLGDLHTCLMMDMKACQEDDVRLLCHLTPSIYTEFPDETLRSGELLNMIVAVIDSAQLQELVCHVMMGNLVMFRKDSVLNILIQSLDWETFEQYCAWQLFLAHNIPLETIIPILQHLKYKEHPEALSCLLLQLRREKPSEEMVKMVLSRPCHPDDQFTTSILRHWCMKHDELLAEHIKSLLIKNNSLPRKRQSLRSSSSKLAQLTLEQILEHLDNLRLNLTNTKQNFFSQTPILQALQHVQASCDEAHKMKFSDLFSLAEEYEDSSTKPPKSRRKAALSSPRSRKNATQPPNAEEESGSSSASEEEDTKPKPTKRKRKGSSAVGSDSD

Binder | binding result [1] | binding result ([2]; label: 5' Cy3, single strand) | binding result [3] | binding result ([2]; label: 5' Cy3 on strand 1, 21-nt RNA paired to strand 1 in a 21-nt bubble, 20-bp flanking duplexes) | binding result ([2]; label: 5' Cy3 on strand 1, blunt, 21-nt central bubble)
61-mer ssDNA (ssDNA) DNA: GACGCTGCCGAATTCTACCAGTGCCTTGCTAGGACATCTTTGCCCACCTGCAGGTTCACCC | no binding | binds | binds |  | 
GTGCCTTGCTAGGACATCTTT (ssDNA) [21-mer ssDNA (pRMS630)] |  | no binding | binds |  | 
R-loop (mixed) DNA 1: GACGCTGCCGAATTCTACCAGTGCCTTGCTAGGACATCTTTGCCCACCTGCAGGTTCACCC DNA 2: GGGTGAACCTGCAGGTGGGCGGCTGCTCATCGTAGGTTAGTTGGTAGAATTCGGCAGCGTC RNA: AAAGAUGUCCUAGCAAGGCAC |  |  |  | binds | 
bubble DNA (dsDNA) DNA 1: GACGCTGCCGAATTCTACCAGTGCCTTGCTAGGACATCTTTGCCCACCTGCAGGTTCACCC DNA 2: GGGTGAACCTGCAGGTGGGCGGCTGCTCATCGTAGGTTAGTTGGTAGAATTCGGCAGCGTC |  |  |  |  | no binding
